Biological target: T1, GAL4-β-catenin fusion protein (GAL4 BD fused with mouse β-catenin armadillo domain, residues 128 to 683) (yeast; mouse, UniProt P04386 1-147; Q02248 128-683)
T1 construct: Bait of the yeast two-hybrid system; also called mβ-catenin arm; β-catenin arm bait plasmid
Assay: yeast two-hybrid, β-galactosidase activity
Excerpt: The respective bait plasmids were cotransfected with the B9L cDNA fragment-expressing clone obtained by the two-hybrid system in Example 1 into yeast HF7C strain, and the binding between the B9L protein and the respective β-catenin partial fragments were examined by the existence of β-galactosidase activity in the transformants. […] Thus, it was considered that the B9L protein binds to the N-terminal region of β-catenin arm (armadillo repeats 1-6).
In order to further examine which region of the B9L protein binds to the β-catenin arm, two-hybrid system was performed as follows. […] Each plasmid was cotransfected with the β-catenin arm bait plasmid prepared in Example 1 into yeast HF7C strain, and the binding of each B9L protein partial fragment and β-catenin arm was examined based on the presence or absence of β-galactosidase activity in the transformants. […] Thus, the B9L protein was indicated to bind to the β-catenin arm at the region of residues 292-439 in the amino acid sequence represented by SEQ ID NO: 2.

Binder | binding result
GAL4 AD fusion of B9L partial fragment, residues 245-439 of SEQ ID NO: 2 (other, not shown: large carriers, Two-hybrid prey) LANTAAEAVLQGRAESILAYHQQNVPRAKLDQAPKVPPTPEPLPLNTPSAGTPQSQPPPLPPPPPAPGSAPPALPPEGPPEDTSQDLAPNSVGAASTGGGTGGTHPNTPTAATANNPLPPGGDPGSAPGSALLGEATPTGNGQRNLVGSEGLSKEQLEHRERSLQTLRDIERLLLRSGETEPFLKGPPGGAGEGG | binds
GAL4 AD fusion of B9L partial fragment, residues 292-439 of SEQ ID NO: 2 (other, not shown: large carriers, Two-hybrid prey; also called B9L fragment of residues 292-439) PSAGTPQSQPPPLPPPPPAPGSAPPALPPEGPPEDTSQDLAPNSVGAASTGGGTGGTHPNTPTAATANNPLPPGGDPGSAPGSALLGEATPTGNGQRNLVGSEGLSKEQLEHRERSLQTLRDIERLLLRSGETEPFLKGPPGGAGEGG | binds

Now from value to binder:

binding result | Binder
no binding | GAL4 AD fusion of B9L partial fragment, residues 440-564 of SEQ ID NO: 2 (other, not shown: large carriers, Two-hybrid prey) PPAQAPSAAQPPPSAPPGGLKKYEEPLQSMISQTQSLGGPPLEHEVPGHPQGGDMGQQMNMMMQRLGQDSLTPEQVAWRKLQEEYYEEKRRKEEQIGLHGGRPLQDMVGMGGMMGRGPPPPYHSK
no binding | LANTAAEAVLQGRAESILAYHQQNVPRAKLDQAPKVPPTPEPLPLNT (other, not shown: large carriers, Two-hybrid prey) [GAL4 AD fusion of B9L partial fragment, residues 245-291 of SEQ ID NO: 2]
binds | GAL4 AD fusion of B9L partial fragment, residues 292-564 of SEQ ID NO: 2 (other, not shown: large carriers, Two-hybrid prey) PSAGTPQSQPPPLPPPPPAPGSAPPALPPEGPPEDTSQDLAPNSVGAASTGGGTGGTHPNTPTAATANNPLPPGGDPGSAPGSALLGEATPTGNGQRNLVGSEGLSKEQLEHRERSLQTLRDIERLLLRSGETEPFLKGPPGGAGEGGPPAQAPSAAQPPPSAPPGGLKKYEEPLQSMISQTQSLGGPPLEHEVPGHPQGGDMGQQMNMMMQRLGQDSLTPEQVAWRKLQEEYYEEKRRKEEQIGLHGGRPLQDMVGMGGMMGRGPPPPYHSK

Source: patent US20040073001A1 (Kyowa Kirin, published 2004)
